# Laboratory results published in patent publication US20240352438A1, “MEANS AND METHODS FOR DETOXIFYING OCHRATOXIN A” (DSM Austria GmbH, priority 2021, published 2024).
# Assays:
# [1] = Enzymatic activity comparison: activity remaining after 65° C. for 10 min at pH 6.0, relative to SEQ ID NO: 1; type: physicochemical
# Experimental: To compare the temperature behavior and thermostability of selected enzymes to one another, enzyme was incubated at 65° C. for 10 min at pH 6.0. The enzymatic activity remaining after incubation was compared to the remaining activity of the enzyme of SEQ ID NO: 1 after incubation, the latter being set to 100%, see Table 16.
# [2] = OTA detoxification activity assay (specific activity, fluorescence reduction ex/em 390/450 nm); type: biochemical; details: SEQ ID NO: 1 = 100%
# Outline: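 Recombinant enzyme preparation with 200 ng/mL OTA in 100 mM sodium phosphate, at pH 6.0 and pH 7.5, 37° C. Degradation followed as the fall in fluorescence at ex/em 390/450 nm. Specific activity taken from the initial linear slope; one unit degrades 1 μmol OTA per min at a starting OTA of […].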
Molecule,"Enzymatic activity remaining after incubation, compared to SEQ ID NO: 1 (set to 100%) [1] [%]","Specific OTA detoxification activities in % compared to the enzyme of SEQ ID NO: 1, pH 6.0 [2] [%]","Specific OTA detoxification activities in % compared to the enzyme of SEQ ID NO: 1, pH 7.5 [2] [%]"
"91 (protein, exemplary polypeptide) MTTRTRILTAFLSLLAANACAADAAPAAPHTVVLRAARMFDGASGKLVDHPQLTIVGNKIVRIAQGDKAEVPAGAEVVDLGDATLLPGFIDAHVHLSGQSSDNWYGDFFDNMMRFPAEQALYGAYYARITLEAGFTSVRDVGSTDWVALGLRNAIDAGKVPGPRMLVSNYAVGSTGGHADQDPIPPHKLPLAGPLQGVCNGPEECRAAVRYQIKYGANVIKFMPSGGVLSLSDPVDAPELSQDEMNAVIGESHAWGRKVAAHAHGDKAAKMAVAAGVDSIEHGSFIEDDTLRAMKAKNVYLVPTISAIAHVEEKIGTLPPVIAEKGRAAAAHLRQTFRHAVQIGVPIALGTDAGVGAHGSNAREFRYMVENGLTPAQALLAGTANAARLLGTFDRVGTLEAGKLADVVAVPGNPIADITVTERPLFVMKDGVVVRRDAVR",16,49,73
"113 (protein, exemplary polypeptide) MTTRTRILTAFLSLLAANACAADAAPAAPHTVVLRAARMFDGASGKLVDHPQLTIVGNKIVRIAQGDKAEVPAGAEVVDLGDATLLPGFIDAHVHLSGQSSDNWYGDFFDNMMRFPAEQALYGAYYARITLEAGFTSVRDVGSTDWVALGLRNAIDAGKVPGPRMLVSNYAVGSTGGHADQDPIPPHKLPLAGPLQGVCNGPEECRAAVRYQIKYGANVIKFMPSGGVLSLSDPVDAPELSQDEMNAVIGESHAWGRKVAAHAHGDKAAKMAVAAGVDSIEHGSFIQDDTLRAMKAKNVYLVPTISAIAHVEEKIGTFPPVIAEKGRAAAAHLRQTFRHAVQIGVPIALGTDAGVGAHGSNAREFRYMVENGLTPAQALLAGTANAARLLGTFDRVGTLEAGKLADVVAVPGNPIADITVTERPLFVMKDGVVVRRDAVR",62,31,95
"105 (protein, exemplary polypeptide) MTTRTRILTAFLSLLAANACAADAAPAAPHTVVLRAARMFDGASGKLVDHPQLTIVGNKIVRIAQGDKAEVPAGAEVVDLGDATLLPGFIDAHVHLSGQSSDNWYGDFFDNMMRFPAEQALYGAYYARITLEAGFTSVRDVGSTDWVALGLRNAIDAGKVPGPRMLVSNYAVGSTGGHADQDPIPPQKLPLAGPLQGVCNGPEECRAAVRYQIKYGANVIKFMPSGGVLSLSDPVDAPELSQDEMNAVIGESHAWGRKVAAHAHGDKAAKMAVAAGVDSIEHGSFIEDDTLRAMKAKNVYLVPTISAIAHVEEKIGTFPPVIAEKGRAAAAHLRQTFRHAVQIGVPIALGTDAGVGAHGSNAREFRYMVENGLTPAQALLAGTANAARLLGTFDRVGTLEAGKLADVVAVPGNPIADITVTERPLFVMKDGVVVRRDAVR",15,81,120
"111 (protein, exemplary polypeptide) MTTRTRILTAFLSLLAANACAADAAPAAPHTVVLRAARMFDGASGKLVDHPQLTIVGNKIVRIAQGDKAEVPAGAEVVDLGDATLLPGFIDAHVHLSGQSSDNWYGDFFDNMMRFPAEQALYGAYYARITLEAGFTSVRDVGSTDWVALGLRNAIDAGKVPGPRMLVSNYAVGSTGGHADQDPIPPHKLPLAGPLQGVCNGPEECRAAVRYQIKYGANVIKFMPSGGVLSLSDPVDAPELSQDEMNAVIGESHAWGRKVAAHAHGDKAAKMAVAAGVDSIEHGSFIEDDTLRAMKAKNVYLVPTISAIAHVEEKIGTFPPVIAEKGRAAAAQLRQTFRHAVQIGVPIALGTDAGVGAHGSNAREFRYMVENGLTPAQALLAGTANAARLLGTFDRVGTLEAGKLADVVAVPGNPIADITVTERPLFVMKDGVVVRRDAVR",35,8,52
"103 (protein, exemplary polypeptide) MTTRTRILTAFLSLLAANACAADAAPAAPHTVVLRAARMFDGASGKLVDHPQLTIVGNKIVRIAQGDKAEVPAGAEVVDLGDATLLPGFIDAHVHLSGQSSDNWYGDFFDNMMRFPAEQALYGAYYARITLEAGFTSVRDVGSTDWVALGLRNAIDAGKVPGPRMLVSNYAVGSTGGHADQDPVPPHKLPLAGPLQGVCNGPEECRAAVRYQIKYGANVIKFMPSGGVLSLSDPVDAPELSQDEMNAVIGESHAWGRKVAAHAHGDKAAKMAVAAGVDSIEHGSFIEDDTLRAMKAKNVYLVPTISAIAHVEEKIGTFPPVIAEKGRAAAAHLRQTFRHAVQIGVPIALGTDAGVGAHGSNAREFRYMVENGLTPAQALLAGTANAARLLGTFDRVGTLEAGKLADVVAVPGNPIADITVTERPLFVMKDGVVVRRDAVR",36,101,124
"107 (protein, exemplary polypeptide) MTTRTRILTAFLSLLAANACAADAAPAAPHTVVLRAARMFDGASGKLVDHPQLTIVGNKIVRIAQGDKAEVPAGAEVVDLGDATLLPGFIDAHVHLSGQSSDNWYGDFFDNMMRFPAEQALYGAYYARITLEAGFTSVRDVGSTDWVALGLRNAIDAGKVPGPRMLVSNYAVGSTGGHADQDPIPPHKLPLAGPLQGVCNGPEECRAAVRYQIKYGANVIKFMPSGGVLSLSDPVDAPELSQDEMNAVIGESHAWGRKVAAHAHGDKAAKMAVAAGVDSIEHGSFIEDDTLRAMKAKNVYLVPTISAIAQVEEKIGTFPPVIAEKGRAAAAHLRQTFRHAVQIGVPIALGTDAGVGAHGSNAREFRYMVENGLTPAQALLAGTANAARLLGTFDRVGTLEAGKLADVVAVPGNPIADITVTERPLFVMKDGVVVRRDAVR",21,54,92
"95 (protein, exemplary polypeptide) MTTRTRILTAFLSLLAANACAADAAPAAPHTVVLRAARMFDGASGKLVDHPQLTIVGNKIVRIAQGDKAEVPAGAEVVDLGDATLLPGFIDAHVHLSGQSSDNWYGDFFDNMMRFPAEQALYGAYYARITLEAGFTSVRDVGSTDWVALGLRNAIDAGKVPGPRMLVSNYAVGSTGGHADQDPIPPHKLPLAGPLQGVCNGPEECRAAVRYQIKYGANVIKFMPSGGVLSLSDPVDAPELSQDEMNAVIGESHAWGRKVAAHAHGDKAAKMAVAAGVDSIEHGSFIEDDTLRAMKAKNVYLVPTISAIAHVEEKIGTFPPVIAEKGRAAAAHLRQTFRHAVQIGVPIALGTDAGLGAHGSNAREFRYMVENGLTPAQALLAGTANAARLLGTFDRVGTLEAGKLADVVAVPGNPIADITVTERPLFVMKDGVVVRRDAVR",38,108,178
"106 (protein, exemplary polypeptide) MTTRTRILTAFLSLLAANACAADAAPAAPHTVVLRAARMFDGASGKLVDHPQLTIVGNKIVRIAQGDKAEVPAGAEVVDLGDATLLPGFIDAHVHLSGQSSDNWYGDFFDNMMRFPAEQALYGAYYARITLEAGFTSVRDVGSTDWVALGLRNAIDAGKVPGPRMLVSNYAVGSTGGHADQDPIPPNKLPLAGPLQGVCNGPEECRAAVRYQIKYGANVIKFMPSGGVLSLSDPVDAPELSQDEMNAVIGESHAWGRKVAAHAHGDKAAKMAVAAGVDSIEHGSFIEDDTLRAMKAKNVYLVPTISAIAHVEEKIGTFPPVIAEKGRAAAAHLRQTFRHAVQIGVPIALGTDAGVGAHGSNAREFRYMVENGLTPAQALLAGTANAARLLGTFDRVGTLEAGKLADVVAVPGNPIADITVTERPLFVMKDGVVVRRDAVR",27,88,126
"108 (protein, exemplary polypeptide) MTTRTRILTAFLSLLAANACAADAAPAAPHTVVLRAARMFDGASGKLVDHPQLTIVGNKIVRIAQGDKAEVPAGAEVVDLGDATLLPGFIDAHVHLSGQSSDNWYGDFFDNMMRFPAEQALYGAYYARITLEAGFTSVRDVGSTDWVALGLRNAIDAGKVPGPRMLVSNYAVGSTGGHADQDPIPPHKLPLAGPLQGVCNGPEECRAAVRYQIKYGANVIKFMPSGGVLSLSDPVDAPELSQDEMNAVIGESHAWGRKVAAHAHGDKAAKMAVAAGVDSIEHGSFIEDDTLRAMKAKNVYLVPTISAIANVEEKIGTFPPVIAEKGRAAAAHLRQTFRHAVQIGVPIALGTDAGVGAHGSNAREFRYMVENGLTPAQALLAGTANAARLLGTFDRVGTLEAGKLADVVAVPGNPIADITVTERPLFVMKDGVVVRRDAVR",27,61,96
"96 (protein, exemplary polypeptide) MTTRTRILTAFLSLLAANACAADAAPAAPHTVVLRAARMFDGASGKLVDHPQLTIVGNKIVRIAQGDKAEVPAGAEVVDLGDATLLPGFIDAHVHLSGQSSDNWYGDFFDNMMRFPAEQALYGAYYARITLEAGFTSVRDVGSTDWVALGLRNAIDAGKVPGPRMLVSNYAVGSTGGHADQDPIPPHKLPLAGPLQGVCNGPEECRAAVRYQIKYGANVIKFMPSGGVLSLSDPVDAPELSQDEMNAVIGESHAWGRKVAAHAHGDKAAKMAVAAGVDSIEHGSFIEDDTLRAMKAKNVYLVPTISAIAHVEEKIGTFPPVIAEKGRAAAAHLRQTFRHAVQIGVPIALGTDAGIGAHGSNAREFRYMVENGLTPAQALLAGTANAARLLGTFDRVGTLEAGKLADVVAVPGNPIADITVTERPLFVMKDGVVVRRDAVR",39,42,33
